These results are taken from the supplement of paper PMC10567573.

To fix the notation:
B1: CDC14A (parent)
chain: GPHPKSKIENGYPLHAPEAYFPYF
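Also: lentivirally expressed fusions sorted by FACS into six bins by GFP to DsRed ratio, PSI derived from sequencing read proportions per bin multiplied by bin number.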

This data set covers variants of B1. Kind of data set: protein stability index of a GFP-peptide fusion (GPS, HEK-293T) (PSI 1-6); higher = more stable. The conditions noted are these: c terminus: a fixed tail appended.
Regarding GPHPKSKIENGYPLHAPEAYGPYF [F21G], the protein stability index was 2.8.
Turning to GPHPKSKIENGYPLHAPEAYWPYF [F21W], the protein stability index came out at 2.71.
Turning to GPHPKSKIENGYPLHAPEAYHPYF [F21H], the protein stability index came to 2.47.
In the case of GPHPKSKIENGYPLHAPEAYDPYF [F21D] it was 3.55; in that of GPHPKSKIENGYPLHAPEAYCPYF [F21C], 2.92.
In the case of GPHPKSKIENGYPLHAPEAYMPYF [F21M] it was 2.69.
Regarding GPHPKSKIENGYPLHAPEAYQPYF [F21Q], the protein stability index was 2.85.
As for GPHPKSKIENGYPLHAPEAYSPYF [F21S], the protein stability index stood at 2.96.
GPHPKSKIENGYPLHAPEAYYPYF [F21Y]: the protein stability index was 2.44.
Turning to GPHPKSNIENGYPLHAPEAYFPYF [K7N], the protein stability index was 2.57.
As to GPHPKSPIENGYPLHAPEAYFPYF [K7P], the protein stability index came to 2.72.
As for GPHPKSRIENGYPLHAPEAYFPYF [K7R], the figure is 2.43.
With GPHPKSWIENGYPLHAPEAYFPYF [K7W], the protein stability index turned out to be 1.57.
On to GPHPKSCIENGYPLHAPEAYFPYF [K7C], for which the protein stability index was found to be 2.23.
As for GPHPKSSIENGYPLHAPEAYFPYF [K7S], the figure is 2.31; as for GPHPKSMIENGYPLHAPEAYFPYF [K7M], 1.91.
Regarding GPHPKSTIENGYPLHAPEAYFPYF [K7T], the protein stability index amounted to 2.43.
GPHPKSQIENGYPLHAPEAYFPYF [K7Q]: the protein stability index was determined as 1.96.
Consider GPHPKSKIEFGYPLHAPEAYFPYF [N10F], for which the protein stability index was determined as 2.51.
In the case of GPHPKSKIEIGYPLHAPEAYFPYF [N10I], the protein stability index stood at 1.63.
As to GPHPKSKIEEGYPLHAPEAYFPYF [N10E], the protein stability index stood at 2.29.
As to GPHPKSKIEYGYPLHAPEAYFPYF [N10Y], the protein stability index was determined as 1.79.
In the case of GPHPKSKIEHGYPLHAPEAYFPYF [N10H], the protein stability index was determined as 2.57.
Turning to GPHPKSKIELGYPLHAPEAYFPYF [N10L], the protein stability index is 2.19.
As for GPHPKSKIETGYPLHAPEAYFPYF [N10T], the figure is 1.82.
Take GPHPKSKIEMGYPLHAPEAYFPYF [N10M]: the protein stability index worked out at 2.31.
Regarding GPHPKSKIEWGYPLHAPEAYFPYF [N10W], the protein stability index is 1.89.
As for GPHPKSKIEGGYPLHAPEAYFPYF [N10G], the protein stability index amounted to 2.18.
On to GEHPKSKIENGYPLHAPEAYFPYF [P2E], for which the protein stability index turned out to be 2.09.
GSHPKSKIENGYPLHAPEAYFPYF [P2S]: the protein stability index came out at 2.33.
On to GIHPKSKIENGYPLHAPEAYFPYF [P2I], for which the protein stability index was found to be 2.28.
Turning to GFHPKSKIENGYPLHAPEAYFPYF [P2F], the protein stability index is 2.8.
For the variant GWHPKSKIENGYPLHAPEAYFPYF [P2W], the protein stability index turned out to be 2.45.
GPNPKSKIENGYPLHAPEAYFPYF [H3N]: the protein stability index was found to be 2.54.
As to GPFPKSKIENGYPLHAPEAYFPYF [H3F], the protein stability index was found to be 2.02.
Consider GPDPKSKIENGYPLHAPEAYFPYF [H3D], for which the protein stability index came to 2.01.
As for GPIPKSKIENGYPLHAPEAYFPYF [H3I], the figure is 2.48.
Regarding GPTPKSKIENGYPLHAPEAYFPYF [H3T], the protein stability index is 1.91.
With GPAPKSKIENGYPLHAPEAYFPYF [H3A], the protein stability index amounted to 2.4.
Take GPEPKSKIENGYPLHAPEAYFPYF [H3E]: the protein stability index stood at 2.46.
As for GPGPKSKIENGYPLHAPEAYFPYF [H3G], the protein stability index is 2.54.
As to GPRPKSKIENGYPLHAPEAYFPYF [H3R], the protein stability index was found to be 2.19.
As for GPHPWSKIENGYPLHAPEAYFPYF [K5W], the figure is 1.92; as for GPHPMSKIENGYPLHAPEAYFPYF [K5M], 1.87; as for GPHPISKIENGYPLHAPEAYFPYF [K5I], 2.06.
Regarding GPHPCSKIENGYPLHAPEAYFPYF [K5C], the protein stability index worked out at 2.23.
Turning to GPHPQSKIENGYPLHAPEAYFPYF [K5Q], the protein stability index was 2.77.
As to GPHPSSKIENGYPLHAPEAYFPYF [K5S], the protein stability index came out at 2.56.
As for GPHPTSKIENGYPLHAPEAYFPYF [K5T], the figure is 2.13; as for GPHPLSKIENGYPLHAPEAYFPYF [K5L], 2.37.
On to GPHPNSKIENGYPLHAPEAYFPYF [K5N], for which the protein stability index turned out to be 2.07.
Turning to GPHPKSKIENGYPLHAPTAYFPYF [E18T], the protein stability index turned out to be 2.01.
In the case of GPHPKSKIENGYPLHAPIAYFPYF [E18I], the protein stability index came out at 1.95.
In the case of GPHPKSKIENGYPLHAPYAYFPYF [E18Y] it was 2.22.
In the case of GPHPKSKIENGYPLHAPGAYFPYF [E18G] it was 2.3.
In the case of GPHPKSKIENGYPLHAPVAYFPYF [E18V] it was 1.57; in that of GPHPKSKIENGYPLHAPQAYFPYF [E18Q], 2.31.
GPHPKSKIENGYPLHAPAAYFPYF [E18A]: the protein stability index came out at 2.61.
With GPHPKSKIENGNPLHAPEAYFPYF [Y12N], the protein stability index turned out to be 3.03.
Turning to GPHPKSKIENGVPLHAPEAYFPYF [Y12V], the protein stability index was 2.19.
Regarding GPHPKSKIENGWPLHAPEAYFPYF [Y12W], the protein stability index came out at 1.86.
For GPHPKSKIENGSPLHAPEAYFPYF [Y12S], the protein stability index was found to be 2.73.
GPHPKSKIENGLPLHAPEAYFPYF [Y12L]: the protein stability index was determined as 2.46.
Consider GPHPKSKIENGHPLHAPEAYFPYF [Y12H], for which the protein stability index was determined as 2.99.
For the variant GPHPKSKIENGFPLHAPEAYFPYF [Y12F], the protein stability index worked out at 1.78.
With GPHPKSKIENHYPLHAPEAYFPYF [G11H], the protein stability index is 2.17.
GPHPKSKIENIYPLHAPEAYFPYF [G11I]: the protein stability index is 1.64.
Regarding GPHPKSKIENKYPLHAPEAYFPYF [G11K], the protein stability index turned out to be 2.44.
With GPHPKSKIENNYPLHAPEAYFPYF [G11N], the protein stability index is 2.07.
As for GPHPKSKIENYYPLHAPEAYFPYF [G11Y], the figure is 2.12; as for GPHPKSKIENSYPLHAPEAYFPYF [G11S], 2.09; as for GPHPKSKIENDYPLHAPEAYFPYF [G11D], 2.85.
As to GPHPKSKIENPYPLHAPEAYFPYF [G11P], the protein stability index amounted to 3.76.
Consider GPHPKSKIENGYPLHAPEMYFPYF [A19M], for which the protein stability index was 2.97.
With GPHPKSKIENGYPLHAPEWYFPYF [A19W], the protein stability index came out at 1.87.
With GPHPKSKIENGYPLHAPECYFPYF [A19C], the protein stability index came out at 1.8.
As for GPHPKSKIENGYPLHAPEQYFPYF [A19Q], the figure is 2.48; as for GPHPKSKIENGYPLHAPEAYFPYT [F24T], 3.41.
As for GPHPKSKIENGYPLHAPEAYFPYE [F24E], the figure is 3.61; as for GPHPKSKIENGYPLHAPEAYFPYG [F24G], 3.09.
As for GPHPKSKIENGYPLHAPEAYFPYM [F24M], the figure is 2.23.
As for GPHPKSKIENGYPGHAPEAYFPYF [L14G], the protein stability index is 2.65.
Take GPHPKSKIENGYPDHAPEAYFPYF [L14D]: the protein stability index worked out at 2.59.
On to GPHPKSKIENGYPAHAPEAYFPYF [L14A], for which the protein stability index is 2.46.
For GPHPKSKIENGYPHHAPEAYFPYF [L14H], the protein stability index worked out at 2.68.
Consider GPHPKSKIENGYPRHAPEAYFPYF [L14R], for which the protein stability index came out at 2.51.
As for GPHPKSKIENGYPYHAPEAYFPYF [L14Y], the protein stability index stood at 1.89.
In the case of GPHHKSKIENGYPLHAPEAYFPYF [P4H], the protein stability index worked out at 2.24.
Take GPHQKSKIENGYPLHAPEAYFPYF [P4Q]: the protein stability index was found to be 2.23.
On to GPHCKSKIENGYPLHAPEAYFPYF [P4C], for which the protein stability index turned out to be 2.27.
For GPHRKSKIENGYPLHAPEAYFPYF [P4R], the protein stability index is 2.8.
For GPHFKSKIENGYPLHAPEAYFPYF [P4F], the protein stability index came to 2.24.
As for GPHAKSKIENGYPLHAPEAYFPYF [P4A], the figure is 2.52; as for GPHMKSKIENGYPLHAPEAYFPYF [P4M], 2.33.
